Values of other authors, collected in paper PMC3654037.
Values belong to the substance of their own block, whether it stands above or below them.

Key:
[1] = biological target: CD48 (Homo sapiens) (UniProt P09326)
[2] = biological target: CD58 (Homo sapiens) (UniProt P19256)
[3] = biological target: CD86 (Homo sapiens) (UniProt P42081)
[4] = biological target: nectin-1 (Homo sapiens) (UniProt Q15223)
[5] = biological target: nectin-2 (Homo sapiens) (UniProt Q92692)
[6] = biological target: nectin-4 (Homo sapiens) (UniProt Q96NY8)

Chain of UniProt P42081 (P42081 24-247): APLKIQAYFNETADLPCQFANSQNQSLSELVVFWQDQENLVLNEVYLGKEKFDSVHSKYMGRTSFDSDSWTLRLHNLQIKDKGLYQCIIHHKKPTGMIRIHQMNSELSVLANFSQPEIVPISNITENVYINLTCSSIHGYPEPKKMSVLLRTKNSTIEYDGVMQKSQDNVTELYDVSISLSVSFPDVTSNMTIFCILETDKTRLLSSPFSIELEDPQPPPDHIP
Chain of UniProt P09326 (P09326 27-220): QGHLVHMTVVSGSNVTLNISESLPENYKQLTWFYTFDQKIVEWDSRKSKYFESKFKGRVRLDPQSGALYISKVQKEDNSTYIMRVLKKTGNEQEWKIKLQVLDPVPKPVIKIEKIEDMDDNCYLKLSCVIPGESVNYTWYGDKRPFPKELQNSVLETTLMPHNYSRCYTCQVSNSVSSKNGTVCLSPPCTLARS
Chain of UniProt P19256 (P19256 29-215): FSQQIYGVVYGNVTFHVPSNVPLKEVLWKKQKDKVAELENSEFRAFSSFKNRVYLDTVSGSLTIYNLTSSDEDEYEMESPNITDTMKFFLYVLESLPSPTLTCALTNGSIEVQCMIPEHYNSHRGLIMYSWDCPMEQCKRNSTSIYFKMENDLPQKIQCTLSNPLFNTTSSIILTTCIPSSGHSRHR

Kd [1]: 10 µM
Substance: 2B4 (from UniProt Q9BZW8)

Kd [2]: 10 µM
Substance: CD2 (from UniProt P06729)

Kd [3]: 20 µM
Substance: CD28 (from UniProt P10747)

Kd [4]: 17.5 µM
Substance: nectin-1 (from UniProt Q15223)

Kd [5]: 0.4 µM
Substance: nectin-2 (from UniProt Q92692)

Kd [6]: 153 µM
Substance: nectin-4 (from UniProt Q96NY8)
